B1: UV excision repair protein RAD23 (Saccharomyces cerevisiae), P32628 (parent)
chain: MVSLTFKNFKKEKVPLDLEPSNTILETKTKLAQSISCEESQIKLIYSGKVLQDSKTVSECGLKDGDQVVFMVSQKKSTKTKVTEPPIAPESATTPGRENSTEASPSTDASAAPAATAPEGSQPQEEQTATTERTESASTPGFVVGTERNETIERIMEMGYQREEVERALRAAFNNPDRAVEYLLMGIPENLRQPEPQQQTAAAAEQPSTAATTAEQPAEDDLFAQAAQGGNASSGALGTTGGATDAAQGGPPGSIGLTVEDLLSLRQVVSGNPEALAPLLENISARYPQLREHIMANPEVFVSMLLEAVGDNMQDVMEGADDMVEGEDIEVTGEAAAAGLGQGEGEGSFQVDYTPEDDQAISRLCELGFERDLVIQVYFACDKNEEAAANILFSDHAD
partner: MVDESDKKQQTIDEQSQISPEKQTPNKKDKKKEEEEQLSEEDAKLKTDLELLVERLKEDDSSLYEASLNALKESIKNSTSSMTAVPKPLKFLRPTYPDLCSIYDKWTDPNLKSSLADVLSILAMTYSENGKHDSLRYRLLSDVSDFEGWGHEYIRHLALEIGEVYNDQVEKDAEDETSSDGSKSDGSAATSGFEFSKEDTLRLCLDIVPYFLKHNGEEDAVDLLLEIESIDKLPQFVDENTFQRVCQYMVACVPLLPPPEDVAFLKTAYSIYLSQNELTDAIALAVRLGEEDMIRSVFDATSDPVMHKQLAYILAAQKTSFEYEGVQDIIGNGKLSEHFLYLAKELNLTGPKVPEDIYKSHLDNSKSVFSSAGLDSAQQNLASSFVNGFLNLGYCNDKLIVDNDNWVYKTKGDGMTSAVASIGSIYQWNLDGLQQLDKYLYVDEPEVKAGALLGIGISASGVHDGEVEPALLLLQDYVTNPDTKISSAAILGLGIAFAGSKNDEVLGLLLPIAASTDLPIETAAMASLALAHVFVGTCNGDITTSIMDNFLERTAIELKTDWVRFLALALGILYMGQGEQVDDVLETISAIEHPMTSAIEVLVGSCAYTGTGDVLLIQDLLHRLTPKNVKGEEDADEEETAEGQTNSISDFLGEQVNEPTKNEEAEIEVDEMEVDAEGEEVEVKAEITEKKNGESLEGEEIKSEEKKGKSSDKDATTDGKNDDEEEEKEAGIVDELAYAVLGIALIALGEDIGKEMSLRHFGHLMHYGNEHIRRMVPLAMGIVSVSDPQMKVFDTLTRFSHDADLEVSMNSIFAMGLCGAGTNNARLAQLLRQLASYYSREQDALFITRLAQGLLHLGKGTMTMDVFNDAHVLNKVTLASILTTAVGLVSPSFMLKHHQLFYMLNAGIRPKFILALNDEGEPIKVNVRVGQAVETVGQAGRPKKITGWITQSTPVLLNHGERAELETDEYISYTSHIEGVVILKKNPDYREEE
B2: UV excision repair protein RAD23 (Saccharomyces cerevisiae), P32628 (parent)
chain: B1 chain
partner: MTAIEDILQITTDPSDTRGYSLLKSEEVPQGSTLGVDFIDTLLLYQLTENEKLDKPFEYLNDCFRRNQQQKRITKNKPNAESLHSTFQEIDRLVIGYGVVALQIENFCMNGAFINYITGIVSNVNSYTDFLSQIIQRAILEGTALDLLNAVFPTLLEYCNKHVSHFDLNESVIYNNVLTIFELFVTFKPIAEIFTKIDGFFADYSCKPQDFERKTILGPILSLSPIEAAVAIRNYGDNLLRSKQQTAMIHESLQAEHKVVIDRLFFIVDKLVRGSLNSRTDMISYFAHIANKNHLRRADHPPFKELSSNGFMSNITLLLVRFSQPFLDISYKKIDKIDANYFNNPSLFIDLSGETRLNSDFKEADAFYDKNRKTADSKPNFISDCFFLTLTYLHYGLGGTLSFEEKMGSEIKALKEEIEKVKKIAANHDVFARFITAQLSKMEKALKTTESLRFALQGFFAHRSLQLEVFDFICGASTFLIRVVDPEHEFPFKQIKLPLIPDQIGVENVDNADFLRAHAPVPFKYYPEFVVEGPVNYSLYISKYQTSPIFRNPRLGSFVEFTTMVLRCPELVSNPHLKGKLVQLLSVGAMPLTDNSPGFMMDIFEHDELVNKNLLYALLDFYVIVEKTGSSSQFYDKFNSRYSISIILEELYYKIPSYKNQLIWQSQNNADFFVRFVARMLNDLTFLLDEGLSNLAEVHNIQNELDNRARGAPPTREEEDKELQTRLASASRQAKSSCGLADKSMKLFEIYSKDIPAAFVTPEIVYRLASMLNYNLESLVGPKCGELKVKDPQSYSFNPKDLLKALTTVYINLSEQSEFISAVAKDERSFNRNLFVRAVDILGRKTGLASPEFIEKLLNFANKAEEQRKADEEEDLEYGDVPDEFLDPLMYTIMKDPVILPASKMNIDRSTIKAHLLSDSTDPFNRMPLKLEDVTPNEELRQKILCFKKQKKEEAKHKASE
B3: UV excision repair protein RAD23 (Saccharomyces cerevisiae), P32628 (parent)
chain: B1 chain
partner: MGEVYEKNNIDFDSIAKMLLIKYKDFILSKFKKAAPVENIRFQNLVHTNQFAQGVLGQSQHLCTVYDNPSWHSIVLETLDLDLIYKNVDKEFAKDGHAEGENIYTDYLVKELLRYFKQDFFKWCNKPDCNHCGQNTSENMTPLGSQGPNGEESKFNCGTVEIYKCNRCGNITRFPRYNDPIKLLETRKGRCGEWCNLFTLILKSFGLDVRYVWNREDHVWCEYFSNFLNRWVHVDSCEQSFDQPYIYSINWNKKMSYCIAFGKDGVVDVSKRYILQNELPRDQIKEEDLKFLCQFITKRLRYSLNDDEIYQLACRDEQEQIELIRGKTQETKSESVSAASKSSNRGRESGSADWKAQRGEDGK
B4: "Peptide-N(4)-(N-acetyl-beta-glucosaminyl)asparagine amidase" (Saccharomyces cerevisiae), Q02890 (parent)
chain: B3 partner
partner: B1 chain
B5: UV excision repair protein RAD23 (Saccharomyces cerevisiae), P32628 (parent)
chain: B1 chain
partner: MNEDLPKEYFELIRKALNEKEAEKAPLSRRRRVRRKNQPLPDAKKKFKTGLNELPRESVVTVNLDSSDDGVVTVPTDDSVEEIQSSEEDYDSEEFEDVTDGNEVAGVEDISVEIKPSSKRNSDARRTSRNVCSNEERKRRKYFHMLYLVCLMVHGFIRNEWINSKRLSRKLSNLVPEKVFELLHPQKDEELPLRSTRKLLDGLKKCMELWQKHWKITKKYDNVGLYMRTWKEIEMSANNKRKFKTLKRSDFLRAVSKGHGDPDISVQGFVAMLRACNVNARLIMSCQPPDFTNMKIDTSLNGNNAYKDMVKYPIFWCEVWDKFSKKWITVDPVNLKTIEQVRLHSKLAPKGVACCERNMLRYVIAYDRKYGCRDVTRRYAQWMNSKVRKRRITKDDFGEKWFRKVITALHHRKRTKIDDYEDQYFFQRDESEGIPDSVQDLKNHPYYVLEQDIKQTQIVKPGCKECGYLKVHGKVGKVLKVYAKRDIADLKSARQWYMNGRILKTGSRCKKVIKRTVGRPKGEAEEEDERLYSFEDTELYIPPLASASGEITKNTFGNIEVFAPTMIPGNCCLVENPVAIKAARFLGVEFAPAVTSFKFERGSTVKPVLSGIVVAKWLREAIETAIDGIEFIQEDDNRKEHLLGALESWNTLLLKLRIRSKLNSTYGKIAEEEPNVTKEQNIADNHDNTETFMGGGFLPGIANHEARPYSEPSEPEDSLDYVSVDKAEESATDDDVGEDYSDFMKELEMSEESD

Variants of: B1
Details: with rpn1_yeast RPN1, P38764

| effect of a mutation on the interaction | Variant |
| --- | --- |
| with no effect | MVSLTFKNFKKEKVPLDLEPSNTILETKTKLAQSISCEESQIKLIYSGKVLQDSKTVSECGLKDGDQVVFMVSQKKSTKTKVTEPPIAPESATTPGRENSTEASPSTDASAAPAATAPEGSQPQEEQTATTERTESASTPGFVVGTERNETIERIMEMGYQREEVERALRAAFNNPDRAVEYLLMGIPENLRQPEPQQQTAAAAEQPSTAATTAEQPAEDDLFAQAAQGGNASSGALGTTGGATDAAQGGPPGSIGLTVEDLLSLRQVVSGNPEAQAPLLENISARYPQLREHIMANPEVFVSMLLEAVGDNMQDVMEGADDMVEGEDIEVTGEAAAAGLGQGEGEGSFQVDYTPEDDQAISRLCELGFERDLVIQVYFACDKNEEAAANILFSDHAD [L276Q] |
| with no effect | MVSLTFKNFKKEKVPLDLEPSNTILETKTKLAQSISCEESQIKLIYSGKVLQDSKTVSECGLKDGDQVVFMVSQKKSTKTKVTEPPIAPESATTPGRENSTEASPSTDASAAPAATAPEGSQPQEEQTATTERTESASTPGFVVGTERNETIERIMEMGYQREEVERALRAAFNNPDRAVEYALMGIPENLRQPEPQQQTAAAAEQPSTAATTAEQPAEDDLFAQAAQGGNASSGALGTTGGATDAAQGGPPGSIGLTVEDLLSLRQVVSGNPEALAPLLENISARYPQLREHIMANPEVFVSMLLEAVGDNMQDVMEGADDMVEGEDIEVTGEAAAAGLGQGEGEGSFQVDYTPEDDQAISRLCELGFERDLVIQVYFACDKNEEAAANIAFSDHAD [L183A;L392A] |

Variants of: B2
Details: with ufd2_yeast UFD2, P54860

| effect of a mutation on the interaction | Variant |
| --- | --- |
| with no effect | MVSLTFKNFKKEKVPLDLEPSNTILETKTKLAQSISCEESQIKLIYSGKVLQDSKTVSECGLKDGDQVVFMVSQKKSTKTKVTEPPIAPESATTPGRENSTEASPSTDASAAPAATAPEGSQPQEEQTATTERTESASTPGFVVGTERNETIERIMEMGYQREEVERALRAAFNNPDRAVEYLLMGIPENLRQPEPQQQTAAAAEQPSTAATTAEQPAEDDLFAQAAQGGNASSGALGTTGGATDAAQGGPPGSIGLTVEDLLSLRQVVSGNPEAQAPLLENISARYPQLREHIMANPEVFVSMLLEAVGDNMQDVMEGADDMVEGEDIEVTGEAAAAGLGQGEGEGSFQVDYTPEDDQAISRLCELGFERDLVIQVYFACDKNEEAAANILFSDHAD [L276Q] |

Variants of: B3
Details: with png1_yeast PNG1, Q02890

| effect of a mutation on the interaction | Variant |
| --- | --- |
| disrupting interaction strength | MVSLTFKNFKKEKVPLDLEPSNTILETKTKLAQSISCEESQIKLIYSGKVLQDSKTVSECGLKDGDQVVFMVSQKKSTKTKVTEPPIAPESATTPGRENSTEASPSTDASAAPAATAPEGSQPQEEQTATTERTESASTPGFVVGTERNETIERIMEMGYQREEVERALRAAFNNPDRAVEYLLMGIPENLRQPEPQQQTAAAAEQPSTAATTAEQPAEDDLFAQAAQGGNASSGALGTTGGATDAAQGGPPGSIGLTVEDLLSLRQVVSGNPEAQAPLLENISARYPQLREHIMANPEVFVSMLLEAVGDNMQDVMEGADDMVEGEDIEVTGEAAAAGLGQGEGEGSFQVDYTPEDDQAISRLCELGFERDLVIQVYFACDKNEEAAANILFSDHAD [L276Q] |
| with no effect | MVSLTFKNFKKEKVPLDLEPSNTILETKTKLAQSISCEESQIKLIYSGKVLQDSKTVSECGLKDGDQVVFMVSQKKSTKTKVTEPPIAPESATTPGRENSTEASPSTDASAAPAATAPEGSQPQEEQTATTERTESASTPGFVVGTERNETIERIMEMGYQREEVERALRAAFNNPDRAVEYALMGIPENLRQPEPQQQTAAAAEQPSTAATTAEQPAEDDLFAQAAQGGNASSGALGTTGGATDAAQGGPPGSIGLTVEDLLSLRQVVSGNPEALAPLLENISARYPQLREHIMANPEVFVSMLLEAVGDNMQDVMEGADDMVEGEDIEVTGEAAAAGLGQGEGEGSFQVDYTPEDDQAISRLCELGFERDLVIQVYFACDKNEEAAANIAFSDHAD [L183A;L392A] |

Variants of: B4
Details: with rad23_yeast RAD23, P32628

| effect of a mutation on the interaction | Variant |
| --- | --- |
| with no effect | MGEVYEKNNIDFDSIAKMLLIKYKDFILSKFKKAAPVENIRFQNLVHTNQFAQGVLGQSQHLCTVYDNPSWHSIVLETLDLDLIYKNVDKEFAKDGHAEGENIYTDYLVKELLRYFKQDFFKWCNKPDCNHCGQNTSENMTPLGSQGPNGEESKFNCGTVEIYKCNRCGNITRFPRYNDPIKLLETRKGRCGEWCNLFTLILKSFGLDVRYVWNREDYVWCEYFSNFLNRWVHVDSCEQSFDQPYIYSINWNKKMSYCIAFGKDGVVDVSKRYILQNELPRDQIKEEDLKFLCQFITKRLRYSLNDDEIYQLACRDEQEQIELIRGKTQETKSESVSAASKSSNRGRESGSADWKAQRGEDGK [H218Y] |

Variants of: B5
Details: with rad4_yeast RAD4, P14736

| effect of a mutation on the interaction | Variant |
| --- | --- |
| with no effect | MVSLTFKNFKKEKVPLDLEPSNTILETKTKLAQSISCEESQIKLIYSGKVLQDSKTVSECGLKDGDQVVFMVSQKKSTKTKVTEPPIAPESATTPGRENSTEASPSTDASAAPAATAPEGSQPQEEQTATTERTESASTPGFVVGTERNETIERIMEMGYQREEVERALRAAFNNPDRAVEYLLMGIPENLRQPEPQQQTAAAAEQPSTAATTAEQPAEDDLFAQAAQGGNASSGALGTTGGATDAAQGGPPGSIGLTVEDLLSLRQVVSGNPEAQAPLLENISARYPQLREHIMANPEVFVSMLLEAVGDNMQDVMEGADDMVEGEDIEVTGEAAAAGLGQGEGEGSFQVDYTPEDDQAISRLCELGFERDLVIQVYFACDKNEEAAANILFSDHAD [L276Q] |

— IntAct's records for PubMed 16401726
